Measured values: patent publication US20250026813A1 (published 2025)
Residue numbers refer to the chain shown, from its start.

B1: YANG-1101 (antibody, V domains shown)
VH: QLQLQESGPGLVKPSETLSLTCTVSGGSISSSSYYWGWIRQPPGKGLEWIGSIYYSGSIYYNPSLKSRVTISVDTSKNQFSLKLSSVTAADTAVYYCASWFGEFLKADAFDIWGQGTMVTVSS
VL: QSALTQPASVSGSPGQSITISCTGTSSDVGGYSYVSWYQQHPGKAPKLMIYDVSKRPSGVSNRFSGSKSGNTASLTISGLQAEDEADYYCCSYAGGSTFVVFGGGTKLTVL
B2: YANG-1102 (antibody, V domains shown)
VH: QVQLQESGPGLVKPSGTLSLTCAVSGGSISTTNWWSWVRQSPGRGLEWIGEIFHIGYTNYNPSLKSRVTISVDKSKNQFSLKLNSVTVADTAVYYCARRVVMDTAMAHFDCWGQGTLVTVSS
VL: QSVLTQPPSVSGAPGQRVTISCTGSSSNIGAGYDVHWYQHLPGTAPKLLIYININRPSGVPDRFSGSKSGTSASLVIAGLQAEDGADYYCQSYDSSLSGWVFGGGTRLTVL
B3: YANG-1103 (antibody, V domains shown)
VH: EVQMVESGGGLIQPGGSLRLSCAASGLTVSSNYMSWVRQAPGKGLEWVSVIYSGGSTFYADSVKDRFTISRDNSKNTLYLQMNSLRAEDTAVYYCARENWNYVFDCWGQGTLVTVSS
VL: DIQLTQSPSFLSASVGDRVTITCWASQGISSYLAWYQQKPGKAPKLLIYAASTLQSGVPSRFSGSGSGTEFTLTISSLQPEDFATYYCQQLNSHPIIFGQGTRLEIK
B4: YANG-1107 (antibody, V domains shown)
VH: B3 VH with P14S, T28S, S49A, T57I
VL: B3 VL with S31T, N92S
B5: YANG-1105 (antibody, V domains shown)
VH: EVQVVESGGGLIQPGGSLRLSCAASGITVSRNYMNWVRQAPGKGLEWVSVIYSGGSTFYADSVKGRFTISRDNSKNTLYLQMNSLRADDTGVYYCAREGYGMDVWGQGTTVTVSS
VL: B3 VL with A50S, S76N, I96C, I97S, R103K
B6: YANG-1106 (antibody, V domains shown)
VH: EVQLVESGGGLIQPGGSLRLSCAASEFIVSRNYMSWVRQAPGKGLEWVSVIYSGGSTFYADSVRGRFTISRDNSKNTLYLQMNSLRAEDTAVYYCARDYGDQYFDYWGQGTLVTVSS
VL: EMVMTQSPATLSVSPGEKATLSCRASQTVSTNLAWYQQKPGQSPRLLIYGASTRATGIPARFSGSGSGTEFTLTISSLQSEDFAIYYCQQYVDWPRTFGQGTTVEIK
B7: YANG-1108 (antibody, V domains shown)
VH: QVQLVESGGGVVHPGRSLRLSCVVSGFTFSGYGMYWVRQAPGKGLEWVAVISKDGSDKYYADSVKGRFTISRDNSKNTLNLQMNSLRAEDTAVFYCAKERTFQGSGSYYNNYFYYGMDVWGQGTTVTVSS
VL: AIQLTQSPSSLSASVGDRVTITCRASQGISSALAWYQQKPGKAPNLLIYDASSLESGVPSRFSGSGFGTDFTLTINSLQPEDFASYYCQQFKSYPLTFGGGTKVEIK
B8: YANG-1109 (antibody, V domains shown)
VH: B5 VH with V4L, A23G, A24V, I27L, N83I, D88E, T90S, Y100F
VL: B3 VL with S31N, A50S, S77N, E81A, F83I, Q90L, I96C, I97S, R103K
B9: IMPI-006 (antibody, V domains shown)
VH: QLQLQESGPGLVKPSETLSLTCTVSGGSISNSNYYWGWIRQPPGKGLEWIGSIYYSGRTYYNPSLKSRVTISVDTSKNQFSLKLSSVTAADTAVYYCARMGLLWFGEFYGMDVWGQGTTVTVSS
VL: DIQMTQSPSSLSASVGDRVTITCRASQGISSWLAWYQQKPEKAPKSLIYDASSLQRGVPSRFSGSGSGTDFTLTISSLQPEDFASYYCQQYNSYPLTFGGGTRVEIK
B10: IMPI-055 (antibody, V domains shown)
VH: QVQLVQSGAEVKKPGASVKVSCKASGYTFTSYDINWVRQATGQGLEWMGWMNPNSGNTGYAQKFQGRVTMTRDTSINTAYMELSSLRSEDTAVYFCARGGRYCSDVTCYSGEPFDYWGQGTLVTVSS
VL: EIMLTQSPDFQSVTPKEKVTITCRASQSIGSSLHWYQQKPDQSPKLLIKFASQSISGVPSRFSGSGSGTDFTLTINSLEAEDAAAYYCHQSSSLPHTFGPGTKVEIK
B11: IMPI-017 (antibody, V domains shown)
VH: EVQLVESGGGLIQPGGSLRLSCAAAGLTVSSNYMNWVRQVPGKGLEWVSVIYSGGSTYYADSVKGRFTISRDNSKNTLYLQMNSLRAEDTAVYYCARDLGTLGMDVWGQGTTVTVSS
VL: B3 VL with S31T, H94Y, P95L, I96P, I97T, R103K, L104V
B12: IMPI-059 (antibody, V domains shown)
VH: EVQLVESGGGLIQPGGSLRLSCAASGFTVSSIYMSWVRQAPGKGLEWVSIIYSRGSTDYADSVKGRFTISRDISKNTLYLQMNSLRAEDTAVYYCARDGTMVRGVHAFDIWGQGTMVTVSS
VL: DIQMTQSPPSLSASIGDRVTITCQASQDISNYLNWYQQKPGKAPKLLIYDASNLETGVPSRFSGSGSGTDFTLTISNLQPEDIVTYYCQQYDNLPSSFGQGTKLEIK
B13: IMPI-037 (antibody, V domains shown)
VH: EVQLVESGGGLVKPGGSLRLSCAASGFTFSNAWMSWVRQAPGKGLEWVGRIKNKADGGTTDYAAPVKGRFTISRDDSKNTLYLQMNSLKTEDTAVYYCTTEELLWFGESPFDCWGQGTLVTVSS
VL: B3 VL with S30N, A84T, L91F, S93D, H94Y, I96R, I97T, Q100P, R103K, L104V
B14: IMPI-027 (antibody, V domains shown)
VH: QVQLQESGPGLVKPSQTLSLTCTVSGGSISSYGYYWNWIRQHPGKGLEWIGYIYYSGSTYYNPSLKSRVTISVDTSKNQLSLRLNSVSAADTAVYYCARDFGGNSNYFDYWGQGTLVTVSS
VL: B7 VL with A25T, N45K, F67S, N76S, S85T, K92N
B15: IMPI-033 (antibody, V domains shown)
VH: B14 VH with N37S, I71M
VL: B7 VL with F67S, N76S, S85T, K92N, Y94S
B16: IMPI-032 (antibody, V domains shown)
VH: QVQLQESGPGLVKPSGTLSLTCAVSGGSISSNKWWSWVRQPPGKGLEWIGEIDHSGSTMYNPSLKSRVTISVDKSKNQFSLKLNSVTAADTAVYYCTGEGYNWNYWGQGTRVTVSS
VL: DVVMTQSPLSLPVTLGQTASISCRSSQSLLYTDGNTYLSWFQQRPGQSPRRLIYKVSKWESGVPDRFSGSGSGTDFTLKISRVEAEDVGIYYCMQGTHWPLTFGGGTKVEIK
B17: IMPI-022 (antibody, V domains shown)
VH: EVQLVESGGGLVQPGRSLRLSCAASGFTFDDYAMHWVRQAPGKGLEWVSGITWNSGSIGYADSVKGRFTISRDNAKNSLYLHMNSLRVEDTALYYCAKDLQGDYYYYGVDVWGQGTTVTVSS
VL: B7 VL with N45K, I48L, E55V, G66R, F67S, N76S, S85T, K92I, K103R

Legend:
[1] = biological target: T1, RBD domain of the spike protein of SARS-CoV-2 virus (Acro Biosystems SPD-C52H3) (SARS-CoV-2, UniProt P0DTC2 319-537); assay: Affinity (SPR) by Octet; antigen not named, taken from the epitope column
T1 construct: domain: RBD domain

[2] = biological target: T2, S2 subunit of the SARS-CoV-2 spike protein (Sino Biological 40590-V08B), His tag (SARS-CoV-2, UniProt P0DTC2 686-1213)
T2 construct: domain: S2 subunit

Binder	Kd [1]	HTRF deltaF [2]
B1	< 100 pM	
B2	< 100 pM	
B3	< 100 pM	
B4	< 100 pM	
B5	< 100 pM	
B6	< 100 pM	
B7	< 100 pM	
B8	< 100 pM	
B9		40.7 deltaF
B10		-10.3 deltaF
B11		13 deltaF
B12		-2.7 deltaF
B13		-2 deltaF
B14		7.5 deltaF
B15		-3.6 deltaF
B16		-8 deltaF
B17		-9.7 deltaF
